Data: paper PMC7591920, “A protein tertiary structure mimetic modulator of the Hippo signalling pathway” (Nature Communications, 2020)

Legend:
[1] = target: GST-hTEAD1(209–426) (human) (UniProt P28347); experiment: not stated; values of Supplementary Table 1; the method is not given
[2] = target: mouse TEAD4(210–427), as purified (SPR) (mouse) (UniProt Q62296); experiment: as above
Chain of mouse TEAD4(210–427), as purified (SPR) (mouse) (Q62296 210-427): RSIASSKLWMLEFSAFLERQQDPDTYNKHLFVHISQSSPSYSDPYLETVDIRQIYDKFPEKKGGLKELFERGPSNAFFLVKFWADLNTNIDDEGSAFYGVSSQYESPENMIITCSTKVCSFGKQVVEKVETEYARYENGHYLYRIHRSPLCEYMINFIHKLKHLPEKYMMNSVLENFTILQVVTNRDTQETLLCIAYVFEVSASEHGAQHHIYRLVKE

“VGL4 two-helix motif peptide with K250 varied to alanine (from UniProt Q80V24 203-256)” was tested, and the Kd [1] was 17 µM and the Kd [2] was 12 µM.
